Assay results published in patent publication US20170107273A1 (JAPAN AS REPRESENTED BY DIRECTOR GENERAL OF NATIONAL …, published 2017).
* marks the point of attachment. Biotin = O=C1N[C@H]2[C@H](CS[C@H]2CCCCC(=O)*)N1

Experiments:
[1] = target: E2 protein of the H77 strain (genotype 1a) on H77/JFH-1 HCVcc (Hepatitis C virus H77 strain (genotype …, UniProt P27958 384-746)); assay: cell-based or functional assay
[2] = target: T1, E2 protein of the TH strain (genotype 1b) on TH/JFH-1 HCVcc (Hepatitis C virus TH strain (genotype …)); assay: cell-based or functional assay
T1 chain: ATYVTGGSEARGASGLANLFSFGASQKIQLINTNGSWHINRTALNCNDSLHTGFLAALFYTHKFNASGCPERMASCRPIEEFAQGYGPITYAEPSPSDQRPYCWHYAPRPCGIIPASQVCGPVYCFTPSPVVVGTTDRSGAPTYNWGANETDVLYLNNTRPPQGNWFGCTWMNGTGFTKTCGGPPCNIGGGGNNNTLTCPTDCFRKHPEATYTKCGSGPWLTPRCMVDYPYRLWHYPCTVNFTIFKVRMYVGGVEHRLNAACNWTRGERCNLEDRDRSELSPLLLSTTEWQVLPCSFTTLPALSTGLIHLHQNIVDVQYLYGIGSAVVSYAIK

[3] = target: E2 protein of the S310 strain (genotype 3a) on S310/JFH-1 HCVcc (Hepatitis C virus S310 strain (genotype …)); assay: cell-based or functional assay
[4] = target: E2 protein on J6/JFH-1 HCVcc-8W (J6/JFH-1 HCVcc after 8 rounds of subculture infection in the presence of the …); assay: cell-based or functional assay
[5] = target: T2, QLINTNGSWHIN (SEQ ID NO: 37), TH E2 protein-derived peptide (Hepatitis C virus TH strain (genotype …, SMILES …)); assay: ELISA on biotinylated 12-mer peptides on streptavidin plates
T2 construct: also called linear peptide of 12 amino acid residues
T2 peptide: Biotin-QLINTNGSWHING-NH2

[6] = target: T3, denatured TH E2-Fc protein (Hepatitis C virus TH strain (genotype …)); assay: ELISA, biotinylated antibody on immobilized denatured TH E2-Fc, avidin-HRP
T3 construct: also called denatured E2 protein; not shown: Fc domain of human immunoglobulin (human IgG) from vector CDM-mIL7R-Ig
T3 chain: T1 chain

Sequence of E2 protein of the H77 strain (genotype 1a) on H77/JFH-1 HCVcc (Hepatitis C virus H77 strain (P27958 384-746 limits assumed): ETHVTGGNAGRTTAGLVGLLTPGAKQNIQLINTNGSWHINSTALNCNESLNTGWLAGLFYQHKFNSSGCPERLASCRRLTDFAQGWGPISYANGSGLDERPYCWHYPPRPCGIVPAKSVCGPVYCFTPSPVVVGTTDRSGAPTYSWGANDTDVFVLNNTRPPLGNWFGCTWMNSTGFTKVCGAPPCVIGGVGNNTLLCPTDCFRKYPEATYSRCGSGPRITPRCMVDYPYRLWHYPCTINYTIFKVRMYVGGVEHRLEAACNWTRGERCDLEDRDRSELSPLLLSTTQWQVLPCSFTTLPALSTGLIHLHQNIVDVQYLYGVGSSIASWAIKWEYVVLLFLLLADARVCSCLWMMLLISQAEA

B1: e2d066 IgG (antibody, V domains shown)
VH: QVQLVQSGSDVKKPGSSVRVSCKASGGSFNSYAVNWVRQAPGQGLEWMGRIMPLVGLPEYAERFQERVTFTADKSTRTAYMDLTSLSSDDTAFYFCAVGVMKIFGEVPLNLDFWGQGTLVTVSS
VL: QAVLTQPSSVSGSPGQSITISCTGTSNDVGSYRYVSWFQQHPGKAPKLMIYDVNKRPSGVSSRFSGSKSGNTASLTISGLQAEDEANYYCSSYTRSSSLAFGGGTKLTVLS
notes: Human IgG1 made in CHO-K1 cells; also called biotinylated e2d066 IgG; ed2066 IgG
IC50 (µg/mL) of infection inhibiting activity against HCVcc (HCV core protein in Huh-7 cells) [1]: 3.3 µg/mL | IC50 (µg/mL) of infection inhibiting activity against HCVcc (HCV core protein in Huh-7 cells) [2]: 0.11 µg/mL | IC50 (µg/mL) of infection inhibiting activity against HCVcc (HCV core protein in Huh-7 cells) [3]: 1.03 µg/mL | IC50 (µg/mL), 50% infection inhibiting concentration (infectious titer, focus count on Huh-7 cells) [4]: < 0.01 µg/mL | binding result [5]: no binding (tested: 1 µg/mL)

B2: e2d081 IgG (antibody, V domains shown)
VH: B1 VH
VL: QSVLTQPPSVSAAPGQKVTISCSGTSSNIGDNYVSWYQHLPGSAPKLLIYDNNKRPSGIPDRFSGSKSGTSATLGITGLQTGDEADFYCGTWDSSLSSVVFGGGTKLTVLG
notes: Human IgG1 made in CHO-K1 cells; also called eE2d081 IgG
IC50 (µg/mL) of infection inhibiting activity against HCVcc (HCV core protein in Huh-7 cells) [1]: 0.66 µg/mL | IC50 (µg/mL) of infection inhibiting activity against HCVcc (HCV core protein in Huh-7 cells) [2]: 0.05 µg/mL | IC50 (µg/mL) of infection inhibiting activity against HCVcc (HCV core protein in Huh-7 cells) [3]: 0.5 µg/mL | IC50 (µg/mL), 50% infection inhibiting concentration (infectious titer, focus count on Huh-7 cells) [4]: 0.67 µg/mL | binding result [5]: no binding (tested: 1 µg/mL)

B3: e2d073 IgG (antibody, V domains shown)
VH: QVQLVQSGAEVKKPGSSVKVSCKASGASFNSFAIDWVRQAPGQGLEWMGRIIPIADVSDYAQKFQGRVTITADKSTRTAYMELTTLRSDDTAVYYCATSPMLTFGGPNAFGAFDVWGQGTMVTVSS
VL: not shown
notes: Human IgG1 made in CHO-K1 cells
IC50 (µg/mL) of infection inhibiting activity against HCVcc (HCV core protein in Huh-7 cells) [1]: > 30 µg/mL | IC50 (µg/mL) of infection inhibiting activity against HCVcc (HCV core protein in Huh-7 cells) [2]: 0.25 µg/mL | IC50 (µg/mL) of infection inhibiting activity against HCVcc (HCV core protein in Huh-7 cells) [3]: 10.4 µg/mL | IC50 (µg/mL), 50% infection inhibiting concentration (infectious titer, focus count on Huh-7 cells) [4]: 59.4 µg/mL | binding result [5]: no binding (tested: 1 µg/mL) | binding result [6]: no binding
